Assays:
[1] = target: recombinant human TLR-4 (Glu24 to Lys631) (human, UniProt O00206 24-631, labeled with fluorophore NT-647); assay: MST
[2] = target: recombinant human TLR-2 (Met1 to Leu590) (human, UniProt O60603 21-590, labeled with fluorophore NT-647); assay: MST
Chain of recombinant human TLR-2 (Met1 to Leu590) (O60603 21-590): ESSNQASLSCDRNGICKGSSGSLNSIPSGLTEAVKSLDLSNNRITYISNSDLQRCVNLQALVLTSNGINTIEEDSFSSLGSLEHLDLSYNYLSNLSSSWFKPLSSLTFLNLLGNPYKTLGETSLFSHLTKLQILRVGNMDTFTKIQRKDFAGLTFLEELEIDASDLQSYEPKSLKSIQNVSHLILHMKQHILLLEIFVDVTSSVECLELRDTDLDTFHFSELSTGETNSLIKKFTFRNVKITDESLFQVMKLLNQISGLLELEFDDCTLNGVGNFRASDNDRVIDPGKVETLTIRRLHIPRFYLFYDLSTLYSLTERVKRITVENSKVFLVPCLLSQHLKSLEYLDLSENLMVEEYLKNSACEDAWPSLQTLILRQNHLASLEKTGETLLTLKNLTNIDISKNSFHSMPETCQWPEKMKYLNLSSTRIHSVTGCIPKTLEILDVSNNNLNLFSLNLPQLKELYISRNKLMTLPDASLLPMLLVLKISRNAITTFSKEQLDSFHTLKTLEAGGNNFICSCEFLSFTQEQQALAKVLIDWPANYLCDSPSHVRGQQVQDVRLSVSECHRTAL

Chain of recombinant human TLR-4 (Glu24 to Lys631) (O00206 24-631): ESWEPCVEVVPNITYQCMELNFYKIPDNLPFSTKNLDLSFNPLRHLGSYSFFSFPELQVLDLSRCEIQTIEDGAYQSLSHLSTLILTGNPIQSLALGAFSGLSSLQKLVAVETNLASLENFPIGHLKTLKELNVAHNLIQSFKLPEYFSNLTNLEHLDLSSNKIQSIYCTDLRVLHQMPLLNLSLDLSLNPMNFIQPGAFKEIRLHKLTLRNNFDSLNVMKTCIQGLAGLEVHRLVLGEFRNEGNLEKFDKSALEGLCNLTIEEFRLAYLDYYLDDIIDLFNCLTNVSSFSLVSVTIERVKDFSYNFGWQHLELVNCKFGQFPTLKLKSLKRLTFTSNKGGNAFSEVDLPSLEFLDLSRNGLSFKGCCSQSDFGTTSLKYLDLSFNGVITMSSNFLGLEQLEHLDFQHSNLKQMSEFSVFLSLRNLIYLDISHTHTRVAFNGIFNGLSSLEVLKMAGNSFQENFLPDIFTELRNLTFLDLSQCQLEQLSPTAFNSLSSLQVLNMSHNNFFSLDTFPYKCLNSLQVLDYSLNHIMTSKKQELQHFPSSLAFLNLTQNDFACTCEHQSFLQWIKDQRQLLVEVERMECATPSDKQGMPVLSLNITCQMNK

Kd [1]: 28 nM
Kd [2]: 31 nM
B1: human biglycan (soluble biglycan proteoglycan) (natural protein, UniProt P21810 38-368, looked up)
chain: DEEASGADTSGVLDPDSVTPTYSAMCPFGCHCHLRVVQCSDLGLKSVPKEISPDTTLLDLQNNDISELRKDDFKGLQHLYALVLVNNKISKIHEKAFSPLRKLQKLYISKNHLVEIPPNLPSSLVELRIHDNRIRKVPKGVFSGLRNMNCIEMGGNPLENSGFEPGAFDGLKLNYLRISEAKLTGIPKDLPETLNELHLDHNKIQAIELEDLLRYSKLYRLGLGHNQIRMIENGSLSFLPTLRELHLDNNKLARVPSGLPDLKLLQVVYLHSNNITKVGVNDFCPMGFGVKRAYYNGISLFNNPVPYWEVQPATFRCVTDRLAIQFGNYKK
modifications: two chondroitin/dermatan sulfate chains
